According to ChEMBL document CHEMBL2074277, “Expression and localization of organic cation/carnitine transporter OCTN2 in Caco-2 cells” (Am J Physiol Gastrointest Liver Physiol, 2003):

Substrate: C[N+](C)(C)CC(O)CC(=O)[O-]
Assay: TP_TRANSPORTER: uptake in Caco-2 cells
Format: functional, cell-based

B1: Organic cation/carnitine transporter 2 (Homo sapiens) (protein)
chain: MRDYDEVTAFLGEWGPFQRLIFFLLSASIIPNGFTGLSSVFLIATPEHRCRVPDAANLSSAWRNHTVPLRLRDGREVPHSCRRYRLATIANFSALGLEPGRDVDLGQLEQESCLDGWEFSQDVYLSTIVTEWNLVCEDDWKAPLTISLFFVGVLLGSFISGQLSDRFGRKNVLFVTMGMQTGFSFLQIFSKNFEMFVVLFVLVGMGQISNYVAAFVLGTEILGKSVRIIFSTLGVCIFYAFGYMVLPLFAYFIRDWRMLLVALTMPGVLCVALWWFIPESPRWLISQGRFEEAEVIIRKAAKANGIVVPSTIFDPSELQDLSSKKQQSHNILDLLRTWNIRMVTIMSIMLWMTISVGYFGLSLDTPNLHGDIFVNCFLSAMVEVPAYVLAWLLLQYLPRRYSMATALFLGGSVLLFMQLVPPDLYYLATVLVMVGKFGVTAAFSMVYVYTAELYPTVVRNMGVGVSSTASRLGSILSPYFVYLGAYDRFLPYILMGSLTILTAILTLFLPESFGTPLPDTIDQMLRVKGMKHRKTPSHTRMLKDGQERPTILKSTAF
For B1, which Km is on record?
The Km was 14.1 µM.
